Results taken from article PMC4893915.
Substitutions are numbered along the chain they refer to. Where two headings read alike, the source gives them in different places.

B1: 1xGT (dsDNA)
DNA 1: TTCGATACACTTGTGGAATGTGTTTGATTTGTTAGCCCCG
DNA 2: CGGGGCTAACAAATCAAACACATTCCACAAGTGTATCGAA
B2: 2xGT (dsDNA)
DNA 1: B1 DNA 1 with T24G, T25G, G26A, T29G
DNA 2: B1 DNA 2 with A12C, C15T, A16C, A17C

What was measured:
Assay in all cases: EMSA
[1] = biological target: T1, ΔL1 TEAD DBD (truncated L1 loop) (human, UniProt P28347 28-104, del52-63)
[2] = biological target: TEAD DBD, multimeric SEC fraction (F#50) (human, UniProt P28347 28-104)
[3] = biological target: TEAD DBD, monomeric SEC fraction (F#61) (human, UniProt P28347 28-104)
[4] = biological target: T1, ΔL1 TEAD DBD (truncated L1 loop); remark: listed apart in the source
TEAD DBD (before SEC) = TEAD DBD (before SEC) (human, UniProt P28347 28-104)

| Binder | Kd [1] [nM] | binding result [2] | binding result [3] | Kd [4] [nM] | binding result (TEAD DBD (before SEC)) |
| --- | --- | --- | --- | --- | --- |
| B1 | 7.9 ± 1.4 | binds | binds |  |  |
| B2 |  | binds | binds | 8.7 | binds |
